Sequences and labels used below:
T1: CcmK2 (Synechocystis sp. PCC6803), FLAG tag removed by TEV protease (Synechocystis sp. PCC6803, UniProt P72761 1-103)
T1 construct: CcmK2, BMC-H carboxysome shell protein of Synechocystis sp; PCC 6803; monomer masses in native MS indicate loss of the first methionine; Residues left after TEV cleavage are in S1 List; source: E. coli BL21(DE3), co-expressed with K1-His4, co-purified on TALON, tag removed with TEV protease; not shown: FLAG, C-terminal, cleaved
T1 sequence (looked up): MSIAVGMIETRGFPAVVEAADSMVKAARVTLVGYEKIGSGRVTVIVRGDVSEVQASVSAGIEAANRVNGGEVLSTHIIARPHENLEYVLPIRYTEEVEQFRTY

B1: CcmK3 (Synechocystis sp. PCC6803), FLAG tag removed by TEV protease (natural protein, UniProt P73406 1-103, looked up)
chain: MPQAVGVIQTLGFPSVLAAADAMLKGGRVTLVYYDLAERGNFVVAIRGPVSEVNLSMKMGLAAVNESVMGGEIVSHYIVPNPPENVLAVLPVEYTEKVARFRT
notes: CcmK3, BMC-H carboxysome shell protein of Synechocystis sp; PCC 6803; monomer mass agrees with loss of the first methionine; Residues left after TEV cleavage are in S1 List; also called TEV-untagged K3-FLAG; source: E. coli BL21(DE3), co-expressed with His4-K4, co-purified on TALON, tag removed with TEV protease; not shown: FLAG, C-terminal, cleaved
B2: CcmK4 (Synechocystis sp. PCC6803), His4 tag removed by TEV protease (natural protein, UniProt P73407 1-112, looked up)
chain: MSAQSAVGSIETIGFPGILAAADAMVKAGRITIVGYIRAGSARFTLNIRGDVQEVKTAMAAGIDAINRTEGADVKTWVIIPRPHENVVAVLPIDFSPEVEPFREAAEGLNRR
notes: CcmK4, BMC-H carboxysome shell protein of Synechocystis sp; PCC 6803; In native MS it came from His4-K4 co-expressed with K3-FLAG; The untagged K4 homo-hexamer of the exchange experiment was made from a His4-tagged K4 expressed alone; Residues left after TEV cleavage are in S1 List; also called untagged K4; TEV-untagged His4-K4; source: E. coli BL21(DE3), TALON-purified, tag removed with TEV …
B3: His4-CcmK4 (Synechocystis sp. PCC6803 CcmK4, N-ter His4 tag) (natural protein, UniProt P73407 1-112, looked up)
chain: B2 chain
notes: CcmK4, BMC-H carboxysome shell protein of Synechocystis sp; PCC 6803; The crystallised sample came from His4-K4/K3-FLAG; no tag removal is told for it; also called His4-K4; source: E. coli BL21(DE3), co-expressed (pET26b-based plasmid, two or four cassettes), soluble fraction of the lysate; TALON-purified (pIsep-FPLC for crystallisation); not shown: His4, N-terminal, kept
B4: CcmK1 (Synechocystis sp. PCC6803), His4 tag removed by TEV protease (natural protein, UniProt P72760 1-111, looked up)
chain: MSIAVGMIETLGFPAVVEAADSMVKAARVTLVGYEKIGSGRVTVIVRGDVSEVQASVTAGIENIRRVNGGEVLSNHIIARPHENLEYVLPIRYTEAVEQFREIVNPSIIRR
notes: CcmK1, BMC-H carboxysome shell protein of Synechocystis sp; PCC 6803; monomer masses in native MS indicate loss of the first methionine; In native MS it came from K1-His4 co-expressed with K2-FLAG; Residues left after TEV cleavage are in S1 List; also called untagged K1; source: E. coli BL21(DE3), TALON-purified, tag removed with TEV protease; not shown: His4, C-terminal, cleaved

Series [1] deals with B2. Description: native MS; TALON-purified co-expressed samples, tags removed with TEV protease; 150 mM ammonium acetate pH 8; positive-ion native ESI-MS with collision induced dissociation of selected hexamers. The note with it: both partners purified.
Series [2] deals with the molecule itself. Described as above.
Series [3] deals with the molecule itself. The series is described as follows: crystal structure; pIsep-FPLC fractions of His4-CcmK4/CcmK3-FLAG at 2.9 mg/mL; 22% PEG 4000, 0.2 M ammonium sulfate, 0.1 M sodium acetate pH 4.6, 12 C; only CcmK4 found in the crystal.
Series [4] concerns the target T1, CcmK2 (Synechocystis sp. PCC6803), FLAG …. Description: native MS; TALON-purified co-expressed samples, tags removed with TEV protease; 150 mM ammonium acetate pH 8; positive-ion native ESI-MS with collision induced dissociation of selected hexamers. The note with it: both partners purified.

“And” between values parts separate entries of the source, which are not always exact repeats. Equal entries are not always repeated.

The source of these data is PMC6788708, “Occurrence and stability of hetero-hexamer associations formed by β-carboxysome CcmK shell components” (PLoS ONE, 2019).

For the molecule B1, in series [1], the stoichiometry N (as a rule, the number of molecules, sites or subunits per partner or assembly) is 0.2 K3:K4 in the hexamer (1:5) and 0.5 K3:K4 in the hexamer (2:4).

Take B2: the “stoichiometry N” value in series [2] came to 6 subunits.

For the molecule B3, the “stoichiometry N” value in series [3] was 6 subunits.

Consider B4, for which, in series [4], the “stoichiometry N” value was 0.2 K1:K2 in the hexamer (1:5) and 2 K1:K2 in the hexamer (4:2).
